For the assay, the target named is SARS-CoV-2 nsp12 (SARS-CoV-2, UniProt P0DTD1). As to the kind of experiment: cryo-EM structure.

B1: SARS-CoV-2 nsp9 (natural protein)
chain: NNELSPVALRQMSCAAGTTQTACTDDNALAYYNTTKGGRFVLALLSDLQDLKWARFPKSDGTGTIYTELEPPCRFVTDTPKGPKVKYLYFIKGLNNLNRGMVLGSLAATVRLQ
With B1, the binding result is “binds”.

B2: RNAylated-nsp9 (20mer RNA) (natural protein)
chain: B1 chain
On to B2, for which the binding result is “binds”.

Values taken from PMC10843261 (Molecular cell, 2023).
